Data taken from publication PMC6609460 (Nature structural & molecular biology, 2019).

T1: FBXL2 in the crystallised GGTase3-FBXL2-SKP1 complex (human, UniProt Q9UKC9 1-423)
T1 sequence: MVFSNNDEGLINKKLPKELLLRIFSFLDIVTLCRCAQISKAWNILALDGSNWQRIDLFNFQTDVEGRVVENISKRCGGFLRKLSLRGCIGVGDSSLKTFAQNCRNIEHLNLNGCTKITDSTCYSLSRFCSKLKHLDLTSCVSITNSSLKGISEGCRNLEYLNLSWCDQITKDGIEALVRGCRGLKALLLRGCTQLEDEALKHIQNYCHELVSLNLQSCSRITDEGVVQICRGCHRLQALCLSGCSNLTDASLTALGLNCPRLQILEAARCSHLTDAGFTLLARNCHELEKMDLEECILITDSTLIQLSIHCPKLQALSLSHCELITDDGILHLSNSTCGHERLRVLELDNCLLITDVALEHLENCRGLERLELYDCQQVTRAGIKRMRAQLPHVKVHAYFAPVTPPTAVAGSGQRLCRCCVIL

B1: PTAR1 in the crystallised GGTase3-FBXL2-SKP1 complex (natural protein)
chain: MAETSEEVAVLVQRVVKDITNAFRRNPHIDEIGLIPCPEARYNRSPIVLVENKLGVESWCVKFLLPYVHNKLLLYRTRKQWLNRDELIDVTCTLLLLNPDFTTAWNVRKELILSGTLNPIKDLHLGKLALTKFPKSPETWIHRRWVLQQLIQETSLPSFVTKGNLGTIPTERAQRLIQEEMEVCGEAAGRYPSNYNAWSHRIWVLQHLAKLDVKILLDELSSTKHWASMHVSDHSGFHYRQFLLKSLISQTVIDSSVMEQNPLRSEPALVPPKDEEAAVSTEEPRINLPHLLEEEVEFSTDLIDSYPGHETLWCHRRHIFYLQHHLNAGSQLSQAMEVDGLNDSSKQGYSQETKRLKRTPVPDSLGLEMEHRFIDQVLSTCRNVEQARFASAYRKWLVTLSQ
B2: RabGGTB in the crystallised GGTase3-FBXL2-SKP1 complex (natural protein)
chain: MGTPQKDVIIKSDAPDTLLLEKHADYIASYGSKKDDYEYCMSEYLRMSGIYWGLTVMDLMGQLHRMNREEILAFIKSCQHECGGISASIGHDPHLLYTLSAVQILTLYDSINVIDVNKVVEYVKGLQKEDGSFAGDIWGEIDTRFSFCAVATLALLGKLDAINVEKAIEFVLSCMNFDGGFGCRPGSESHAGQIYCCTGFLAITSQLHQVNSDLLGWWLCERQLPSGGLNGRPEKLPDVCYSWWVLASLKIIGRLHWIDREKLRNFILACQDEETGGFADRPGDMVDPFHTLFGIAGLSLLGEEQIKPVNPVFCMPEEVLQRVNVQPELVS

Legend:
[1] = target: T1, FBXL2 in the crystallised …; test: crystal structure
[2] = target: B1; test: crystal structure

Row | Binder | binding result [1] | binding result [2]
1 | B1 | binds | 
2 | B2 |  | binds
